Values quoted from earlier work as cited in patent EP0259891B1, “[Leu 13] motilin, DNAs coding for same and methods for producing same” (KYOWA HAKKO KOGYO CO., LTD., priority 1986, dated 1995).

Conditions: 13th amino acid Met oxidised; M. Fujino et al., Chem. Pharm. Bull., 26, 101 (1978)

Q: With “motilin: physiologically active peptide occurring in the mammalian blood, composed of 22 amino acid residues, 13th amino acid Met” as the substance, how does the “motilin activity after oxidation of Met to the sulfoxide form” value read?
A: Its value is “decreased motilin activity”.
